Laboratory results published in patent US20200010508A1 (REGENTS OF THE UNIVERSITY OF MICHIGAN, published 2020).
Ends that are not written are not given here.

Assays:
[1] = biological target: T1, Glypican-3 on human HCC cells (Hep3B, HepG2) and in HCC tissue (human, UniProt P51654 25-554); assay: affinity restated in the discussion of the studies (flow cytometry on Hep3B cells)
T1 construct: whole, on cells; Endogenous GPC3 on cells; also used here for GPC3 in sections of Hep3B xenografts and human HCC specimens; also called GPC3
Experimental: (§1) The apparent dissociation constant (kd) was measured for the optimized GPC3 peptide to Hep3B cells to provide an assessment of peptide binding affinity. The ALL*-Cy5.5 peptide reagent was serially diluted in PBS at concentrations ranging from 0 to 200 nM in 25 nM increments and incubated with Hep3B cells. The mean fluorescence intensities was measured on flow cytometry. The equilibrium dissociation constant kd=1/kₐ was calculated by performing a least squares fit of the data to the non-linear equation I=(I₀+Iₘₐₓkₐ[X])/([…]). I₀and Iₘₐₓ are the initial and maximum fluorescence intensities, corresponding to no peptide and at saturation, respectively, and [X] represents the concentration of the bound peptide.

[2] = biological target: T1, Glypican-3 on human HCC cells (Hep3B, …); assay: confocal microscopy on cells, ANOVA on log-transformed data
Description: (§2) FIGS. 6-2A-Q show validation of specific peptide binding to cells in vitro. On confocal microscopy, we observed strong fluorescence intensity from ALL*-Cy5.5 binding to the surface (arrow) of A) Hep3B and B) HepG2 human HCC cells, and minimal signal with C) SK-Hep1 cells. D-F) Minimal signal is observed with the scrambled control peptide QLE*-Cy5.5 for all cells. Strong binding (arrow) is also observed with AF488-labeled anti-GPC3 antibody used as a positive control for G) Hep3B and H) HepG2 and minimal signal with I) SK-Hep1. […] The Hep3B versus SK-Hep1 difference was also larger for antibody than QLE (P=2.3×10⁻⁸, 6.0-fold larger). Intensity was measured with 6 replicates per condition and fitted to an ANOVA model with terms for 9 means to log-transformed data. […] We further validated specific peptide binding to GPC3 using siRNA knockdown. […] Q) Quantified fluorescence intensities. The siCL vs siGPC3 difference was 7.4 times bigger for ALL than the same difference for QLE (P=7.8×10⁻⁵), and the difference for antibody was 8.9 times bigger than for QLE (P=2.5×10⁻⁵), by ANOVA on log-transformed data. Results are an average of 6 images collected independently.

[3] = biological target: T1, Glypican-3 on human HCC cells (Hep3B, …); assay: immunofluorescence on human biopsies, ANOVA on log-transformed data
[4] = biological target: T1, Glypican-3 on human HCC cells (Hep3B, …); assay: confocal microscopy, Hep3B siGPC3 vs siCL
Description: The specificity of lead candidate peptide reagent binding was validated by siRNA knockdown of GPC3 in human HCC cells. The cells were transfected with siRNA to knockdown cell surface expression of GPC3. […] These cells were transfected with non-targeting siRNA (siCL) for use as control. […] FIG. 6-1D,E show ˜4-fold reduction in fluorescence intensity with both the peptide reagent and anti-GPC3 antibody, respectively, for Hep3B cells transfected with siRNA (siGPC3) to knock down GPC3 expression. […] FIG. 6-2M, N, O and P show the same result as original FIG. 6-1A, B, D and E.

[5] = biological target: T1, Glypican-3 on human HCC cells (Hep3B, …); assay: confocal microscopy on Hep3B cells with siRNA knockdown of GPC3
Description: as §2, with “On” for “FIGS. 6-2A-Q show validation of specific peptide binding to cells in vitro. On”
The specificity of lead candidate peptide reagent binding was validated by siRNA knockdown of GPC3 in human HCC cells. The cells were transfected with siRNA to knockdown cell surface expression of GPC3. […] These cells were transfected with non-targeting siRNA (siCL) for use as control.

[6] = biological target: T1, Glypican-3 on human HCC cells (Hep3B, …); assay: cell-based or functional assay
[7] = biological target: T1, Glypican-3 on human HCC cells (Hep3B, …); assay: flow cytometry, mean fluorescence of Hep3B cells with 0-200 nM peptide; apparent dissociation constant
Experimental: as §1

[8] = biological target: T1, Glypican-3 on human HCC cells (Hep3B, …); assay: confocal microscopy of xenograft and normal mouse liver sections, n=26
Experimental: FIGS. 13A-I show validation of specific peptide binding to GPC3 overexpressed in mouse HCC xenograft tumors. Confocal microscopy of A) ALL*-Cy5.5 compared to B) QLE*-Cy5.5 to sections of Hep3B xenograft tumors. Fluorescence intensities were measured from sets of 3 (dashed white) boxes with dimensions of 20×20 μm2.
The specimens were also sectioned for collection of confocal images to perform microscopic validation of peptide binding ex vivo. We found increased cell surface staining of ALL*-Cy5.5 compared with QLE*-Cy5.5 to Hep3B xenograft (arrow), FIG. 13A,B. Overexpression of GPC3 on cell surface of Hep3B xenograft was confirmed with known antibody, FIG. 13C.

T1 sequence (P51654 25-554 limits assumed): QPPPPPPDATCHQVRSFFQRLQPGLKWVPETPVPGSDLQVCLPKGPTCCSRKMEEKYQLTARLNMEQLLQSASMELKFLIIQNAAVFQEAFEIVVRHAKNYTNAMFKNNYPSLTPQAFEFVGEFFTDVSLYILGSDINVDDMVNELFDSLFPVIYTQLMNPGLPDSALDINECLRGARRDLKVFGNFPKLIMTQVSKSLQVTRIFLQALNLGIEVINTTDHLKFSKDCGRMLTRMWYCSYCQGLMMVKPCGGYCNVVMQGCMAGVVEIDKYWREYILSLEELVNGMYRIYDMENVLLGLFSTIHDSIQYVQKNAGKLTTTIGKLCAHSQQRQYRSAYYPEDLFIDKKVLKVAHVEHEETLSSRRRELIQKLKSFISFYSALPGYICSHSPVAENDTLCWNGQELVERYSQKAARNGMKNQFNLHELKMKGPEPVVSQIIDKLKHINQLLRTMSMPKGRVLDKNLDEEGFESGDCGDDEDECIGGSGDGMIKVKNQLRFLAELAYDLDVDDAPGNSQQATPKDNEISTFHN

B1: ALL*-Cy5.5 peptide reagent (ALLANHEELFQT-GGGSK-Cy5.5) (peptide)
peptide: ALLANHEELFQTGGGSK(sulfo‑Cy5.5)
notes: also called lead candidate GPC3 peptide; optimized GPC3 peptide
[1]
  Kd: 71.3 nM
[2]
  fold, intensity difference Hep3B vs SK-Hep1 against the same difference for QLE*: 8.2 fold
  fold, intensity difference HepG2 vs SK-Hep1 against the same difference for QLE*: 3.3 fold
[3]
  fold, signal in human HCC against adenoma: 2.48 fold
  fold, signal in human HCC against cirrhosis: 2.05 fold
  fold, signal in human HCC against normal liver: 3.43 fold
[4]
  fold reduction in fluorescence intensity on GPC3 knockdown: ~4 fold
[5]
  fold, siCL vs siGPC3 difference against the same difference for QLE: 7.4 fold
[6]
  fluorescent intensity of ALL*-Cy5.5 against control peptide QLE*-Cy5.5, in vivo dual axes confocal endomicroscopy: 2.9 fold
  target-to-background (T/B) ratio at 2 hours, in vivo whole-body NIR fluorescence imaging of Hep3B xenograft: 3.91
  target-to-background ratio of ALL*-Cy5.5 against QLE*-Cy5.5, in vivo NIR laparoscopy: 2.8 fold
  target-to-background ratio, in vivo NIR laparoscopy of Hep3B xenograft 2 hours after injection: 8.3
[7]
  Kd: 71 nM
[8]
  fold, intensity from peptide binding to HCC (Hep3B xenograft) against normal liver: 2.22 fold

## ALLANHEELFQT [unlabeled ALL* peptide (ALLANHEELFQT)]
[6]
  reduction of T/B ratio of ALL*-Cy5.5 by blocking with 3-fold unlabeled targeting peptide dose: 1.65 fold
  reduction of T/B ratio of ALL*-Cy5.5 by blocking with 10-fold unlabeled targeting peptide dose: 3.56 fold

## QLELTFHANLEAGGGSK(sulfo‑Cy5.5) [QLE*-Cy5.5 scrambled control peptide (QLELTFHANLEA-GGGSK-Cy5.5)]
[6]
  target-to-background (T/B) ratio at 2 hours, in vivo whole-body NIR fluorescence imaging of Hep3B xenograft: 1.12
  target-to-background ratio, in vivo NIR laparoscopy of Hep3B xenograft 2 hours after injection: 3
